Consider two substances from paper PMC3690481.

For assay [1], the target named is FlAsH-tagged Met1-diUb E16A^prox (UniProt P0CG48). Kind of assay: fluorescence anisotropy. On the technique in general: Fluorescence polarisation rises when a labelled molecule tumbles more slowly, as on binding a larger partner.
The target in a further assay is Lys63-linked diUb (UniProt P0CG48). Kind of assay: fluorescence polarisation; FlAsH-tagged diUb fixed (10 μl of 100 nM plus 10 μl protein), OTULIN C129A variants serially diluted; 20 mM Tris pH 7.4, 100 mM NaCl, 5 mM β-mercaptoethanol, 0.1 mg/ml BSA; one-site binding model; triplicate.

Usually Kd stands for the free concentration of one partner at which half of the binding sites on the other are occupied at equilibrium, for simple one-to-one binding. m1; m3 OTULIN:N341D; proximal Ub:E16A: the Kd in assay [1] stood at 0.117 µM.
In the case of “OTULIN (1–352) C129A (from UniProt Q96BN8 1-352) (enzyme)”, the Kd with Lys63-linked diUb came out at 12 µM.
